# In article PMC8944172 (Antiviral Research, 2022):
# B1: REG10987 (antibody, V domains shown)
# VH: QVQLVESGGGVVQPGRSLRLSCAASGFTFSNYAMYWVRQAPGKGLEWVAVISYDGSNKYYADSVKGRFTISRDNSKNTLYLQMNSLRTEDTAVYYCASGSDYGDYLLVYWGQGTLVTVSS
# VL: QSALTQPASVSGSPGQSITISCTGTSSDVGGYNYVSWYQQHPGKAPKLMIYDVSKRPSGVSNRFSGSKSGNTASLTISGLQSEDEADYYCNSLTSISTWVFGGGTKLTVL
# B2: REG10933 (antibody, V domains shown)
# VH: QVQLVESGGGLVKPGGSLRLSCAASGFTFSDYYMSWIRQAPGKGLEWVSYITYSGSTIYYADSVKGRFTISRDNAKSSLYLQMNSLRAEDTAVYYCARDRGTTMVPFDYWGQGTLVTVSS
# VL: DIQMTQSPSSLSASVGDRVTITCQASQDITNYLNWYQQKPGKAPKLLIYAASNLETGVPSRFSGSGSGTDFTFTISGLQPEDIATYYCQQYDNLPLTFGGGTKVEIK
# Molecular target: His-tagged RBD of SARS-CoV-2 (SARS-CoV-2, UniProt P0DTC2)
# Assay: SPR
row,Binder,binding result
1,B1,binds
2,B2,binds
